Numbered stars: 1 amine (or outer) side, 2 acyl side, 3 side chain; on linkers, the order of the positions; unused ones are H or OH. Square brackets hold non-standard residues; d marks the D form. Ends that are not written are not given here. Cys(S-tBut) = S-t-butylthio-L-cysteine, CC(C)(C)SSC[C@H](N[*:1])C(=O)[*:2]; Cys(tBut) = S-t-butyl-L-cysteine, CC(C)(C)SC[C@H](N[*:1])C(=O)[*:2]
T1: ferroportin tagged at the C-terminus with green fluorescent protein (ECR293/Fpn-GFP cells)
T1 sequence (Q9NP59 whole entry, species assumed, looked up): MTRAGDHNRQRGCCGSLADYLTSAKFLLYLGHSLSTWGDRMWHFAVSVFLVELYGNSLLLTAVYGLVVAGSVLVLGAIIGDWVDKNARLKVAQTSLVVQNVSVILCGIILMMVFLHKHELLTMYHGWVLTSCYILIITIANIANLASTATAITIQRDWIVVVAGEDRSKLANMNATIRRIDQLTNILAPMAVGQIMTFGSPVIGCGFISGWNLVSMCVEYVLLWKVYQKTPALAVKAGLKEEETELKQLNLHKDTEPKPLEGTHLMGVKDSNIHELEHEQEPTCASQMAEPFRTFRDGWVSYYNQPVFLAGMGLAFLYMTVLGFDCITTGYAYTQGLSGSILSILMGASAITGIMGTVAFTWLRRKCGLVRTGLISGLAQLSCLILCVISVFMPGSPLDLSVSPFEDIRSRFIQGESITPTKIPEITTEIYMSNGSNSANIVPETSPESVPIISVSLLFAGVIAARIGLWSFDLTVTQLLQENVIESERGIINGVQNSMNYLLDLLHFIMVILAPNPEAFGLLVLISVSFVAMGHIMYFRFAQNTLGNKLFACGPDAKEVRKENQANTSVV


Experiments:
[1] = biological target: T1, ferroportin tagged at the C-terminus …; test: cell-based or functional assay
[2] = biological target: T1, ferroportin tagged at the C-terminus …; test: cell-based or functional assay; remark: listed apart in the source

Binder	EC50 (nM); loss of fluorescence of Fpn-GFP cells, flow cytometry [1]	EC50; loss of fluorescence of Fpn-GFP cells [2]
HFPICI-NH2 [Hep6 (Hep3-8)]	1000 nM	
DTHFPIAIFC-NH2 [Hep10 (Hep1-10 C7A)]	100 nM	
HFPICIF-NH2 [Hep7ΔDT (Hep3-9)]	700 nM	
DTHAPI[Cys(S-tBut)]IF-NH2 (N-terminus assumed; SMILES CC[C@H](C)[C@H](NC(=O)[C@H](CSSC(C)(C)C)NC(=O)[C@@H](NC(=O)[C@@H]1CCCN1C(=O)[C@H](C)NC(=O)[C@H](Cc1c[nH]cn1)NC(=O)[C@@H](NC(=O)[C@@H](N)CC(=O)O)[C@@H](C)O)[C@@H](C)CC)C(=O)N[C@@H](Cc1ccccc1)C(N)=O) [Hep9C7-SStBut]	700 nM	
FICIPFHTD (N-terminal R3 = Ursodeoxycholate-(PEG11)-; retroinverted (D-amino acids); C-terminal amide) [Pr24]	1000 nM	
DTHFPICI-NH2 [Hep8 (Hep1-8)]	2000 nM	
[dF][dI][dC][dI][dP][dF][dH]-NH2 (N-terminus assumed; SMILES CC[C@@H](C)[C@@H](NC(=O)[C@H](N)Cc1ccccc1)C(=O)N[C@H](CS)C(=O)N[C@@H](C(=O)N1CCC[C@@H]1C(=O)N[C@H](Cc1ccccc1)C(=O)N[C@H](Cc1c[nH]cn1)C(N)=O)[C@H](C)CC) [riHep7ΔDT]	150 nM	
DTHAPICIF-NH2 [Hep9F4A]	> 3000 nM	
FICIPFHTD (retroinverted: all D-amino acids; C-terminal amide) [Pr12]	900 nM	
DTHAPI[Cys(tBut)]IF-NH2 (N-terminus assumed; SMILES CC[C@H](C)[C@H](NC(=O)[C@H](CSC(C)(C)C)NC(=O)[C@@H](NC(=O)[C@@H]1CCCN1C(=O)[C@H](C)NC(=O)[C@H](Cc1c[nH]cn1)NC(=O)[C@@H](NC(=O)[C@@H](N)CC(=O)O)[C@@H](C)O)[C@@H](C)CC)C(=O)N[C@@H](Cc1ccccc1)C(N)=O) [Hep9C7-tBut]	> 10000 nM	
DTHFPISIF-NH2 [Hep9-C7S]	> 10000 nM	
HFPIC-NH2 [Hep5 (Hep3-7)]	> 10000 nM	
DTHFPIAIF-NH2 [Hep9-C7A]	> 10000 nM	
FPIC-NH2 [Hep4 (Hep4-7)]	> 10000 nM	
HFPICIF (not fully specified; C-terminal F carries R1 = -CONH2-CH2-CH2-S; disulfide cyclized (double underlining lost)) [Cyc-3]	> 10000 nM	
FICIPFHTD (N-terminal R2 = Chenodeoxycholate-(PEG11)-; retroinverted (D-amino acids); C-terminal amide) [Pr23]	100 nM	
FICIPFHTD (N-terminal R4 = Palmitoyl-(PEG11)-; retroinverted (D-amino acids); C-terminal amide) [Pr27]	20 nM	
DTHFPICIFCCGCCHRSKCGMCCKT (disulfide (positions not given here); also: 4 disulfide bonds, pairing not given here) [Hep25]	10 nM	5 to 15 nM
DTHFPIC-NH2 [Hep7 (Hep1-7)]	> 10000 nM	
FICIPFHTD (not fully specified; N-terminal R5 = 2(Palmitoyl)-Dap(PEG11)-, Dap = diaminopropionic acid; retroinverted (D-amino acids); C-terminal amide) [Pr28]	3000 nM	
